The values below come from patent publication US20120238038, “PEPTIDE BINDING TO METHYLATED DNA” (published 2012).

The series has as its target peptide F (two-zinc-finger peptide, X = phenylalanine) (Artificial Sequence). As to the kind of experiment: EMSA; 100 uM ZnCl2, 100 mM NaCl, 4 C. To be noted: protein: synthetic; tags: none; chemically synthesized (Fmoc SPPS), C-terminal amide; label: 5'-32P on G chain. On the procedure: These bands obtained on the gel were quantified using Image Gauge software (FUJIFILM Corporation, ver. 4.01). The ratio of DNA bound to the peptide ([bound]/[bound]+[free]) was calculated from the band intensity at each peptide concentration; using this and the concentration of the peptide, the dissociation constant between the peptide and the DNA was calculated from the calculation equation (2) below.

peptide F (two-zinc-finger peptide, X = phenylalanine) (Artificial Sequence), sequence (chain, as listed by the source): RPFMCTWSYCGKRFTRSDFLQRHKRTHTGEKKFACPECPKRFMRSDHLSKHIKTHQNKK

B1: unmethylated target DNA (dsDNA)
DNA 1: GGGGCGGGGCC
DNA 2: GGCCCCGCCCC
As a reminder, the Kd is the equilibrium constant for the complex coming apart. Read a high Kd as a looser complex. Turning to B1, the Kd worked out at 2.1 µM.

B2: methylated target DNA (dsDNA)
DNA 1: GGGGCGGGGCC
DNA 2: GGCCCCGCCCC
modifications: 5mC at position 5 of G chain and position 6 of C chain
Take B2: the Kd was 5.58 µM. Against the preceding molecule, the Kd is about 2.7-fold higher.
